Data set [1] concerns the molecule itself. Put plainly: AVEXIS, pentameric prey zebrafish DraxinB on bait zDraxinB.
Data set [2] deals with T1, zebrafish DraxinA, AVEXIS prey or bait protein (zebrafish, UniProt Q4V9H3 24-360).
T1 construct: Prey and bait forms of the same protein are kept as one molecule; Preys are pentameric except in the monomeric-prey experiments; also called DraxinA prey protein
T1 chain: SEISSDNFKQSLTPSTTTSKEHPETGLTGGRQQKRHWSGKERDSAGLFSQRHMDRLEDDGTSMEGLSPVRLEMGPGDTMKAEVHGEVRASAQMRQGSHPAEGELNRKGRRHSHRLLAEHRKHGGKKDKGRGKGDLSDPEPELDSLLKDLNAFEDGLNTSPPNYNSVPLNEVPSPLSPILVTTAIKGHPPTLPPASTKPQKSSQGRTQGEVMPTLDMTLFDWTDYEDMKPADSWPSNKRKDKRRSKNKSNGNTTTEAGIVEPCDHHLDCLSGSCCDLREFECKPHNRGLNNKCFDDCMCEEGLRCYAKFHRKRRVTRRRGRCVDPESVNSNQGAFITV
Kind of data set: AVEXIS, prey on bait zDraxinA, upper value; white = No binding.

In data set [3] the target is T1, zebrafish DraxinA, AVEXIS prey or bait …. Kind of data set: AVEXIS, pentameric prey zebrafish DraxinB on bait zDraxinA.
Data set [4] deals with the molecule itself. Kind of data set: AVEXIS, prey on bait zDraxinB, lower value; white = No binding.
Data set [5] deals with the molecule itself. Put plainly: AVEXIS, prey on bait zDraxinB, upper value; white = No binding.
For data set [6], the target named is T1, zebrafish DraxinA, AVEXIS prey or bait …. Kind of data set: AVEXIS, prey on bait zDraxinA, lower value; white = No binding.
For data set [7], the target named is T2, human DRAXIN, AVEXIS prey or bait protein (human, UniProt Q8NBI3 26-349).
T2 construct: It was tested in both bait and prey orientations
T2 sequence: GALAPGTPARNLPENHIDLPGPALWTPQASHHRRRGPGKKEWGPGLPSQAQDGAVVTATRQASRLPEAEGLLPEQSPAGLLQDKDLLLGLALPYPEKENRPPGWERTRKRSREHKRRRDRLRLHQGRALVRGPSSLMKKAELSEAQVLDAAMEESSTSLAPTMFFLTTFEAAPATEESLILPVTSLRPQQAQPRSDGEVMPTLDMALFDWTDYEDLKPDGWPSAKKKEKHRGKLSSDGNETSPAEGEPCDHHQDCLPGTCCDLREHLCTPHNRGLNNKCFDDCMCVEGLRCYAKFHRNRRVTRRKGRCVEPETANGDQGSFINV
Put plainly: AVEXIS, pentameric prey zebrafish DraxinB on bait hDRAXIN.

The target of data set [8] is T3, human Netrin-G2, AVEXIS protein (human, UniProt Q96CW9 18-507).
T3 construct: not shown: AVEXIS tag (bait or prey)
T3 sequence (looked up): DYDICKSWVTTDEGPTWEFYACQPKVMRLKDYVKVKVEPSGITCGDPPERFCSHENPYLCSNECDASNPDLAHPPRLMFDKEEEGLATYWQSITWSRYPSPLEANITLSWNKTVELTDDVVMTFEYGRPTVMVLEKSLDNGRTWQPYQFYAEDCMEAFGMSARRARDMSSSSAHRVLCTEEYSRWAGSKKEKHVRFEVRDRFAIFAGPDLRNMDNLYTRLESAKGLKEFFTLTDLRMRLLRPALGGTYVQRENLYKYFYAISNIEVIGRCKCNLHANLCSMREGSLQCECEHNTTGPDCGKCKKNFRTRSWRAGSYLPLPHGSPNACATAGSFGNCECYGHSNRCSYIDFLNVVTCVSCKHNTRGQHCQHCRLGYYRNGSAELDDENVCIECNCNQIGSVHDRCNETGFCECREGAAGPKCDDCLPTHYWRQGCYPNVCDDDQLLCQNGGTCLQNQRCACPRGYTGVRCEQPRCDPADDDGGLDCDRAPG
Kind of data set: AVEXIS, prey on bait NTNG2; white = No binding. An excerpt: (§1) The Matn4-bait served as an internal prey-protein control and was used for normalization of the A486 nm values; conditioned medium (CM) serves as negative control; n=3.

Data set [9] deals with T4, Matn4 ECD, mono-biotinylated bait protein (positive control).
T4 construct: extracellular domain; also called Matn4-bait
Put plainly: AVEXIS, prey on bait Matn4 (+), positive control for the prey; dark = Binding.
Source text: as §1

Data set [10] concerns the target T5, human Netrin-4, AVEXIS protein (human, UniProt Q9HB63 19-628).
T5 construct: not shown: AVEXIS tag (bait or prey)
T5 sequence (looked up): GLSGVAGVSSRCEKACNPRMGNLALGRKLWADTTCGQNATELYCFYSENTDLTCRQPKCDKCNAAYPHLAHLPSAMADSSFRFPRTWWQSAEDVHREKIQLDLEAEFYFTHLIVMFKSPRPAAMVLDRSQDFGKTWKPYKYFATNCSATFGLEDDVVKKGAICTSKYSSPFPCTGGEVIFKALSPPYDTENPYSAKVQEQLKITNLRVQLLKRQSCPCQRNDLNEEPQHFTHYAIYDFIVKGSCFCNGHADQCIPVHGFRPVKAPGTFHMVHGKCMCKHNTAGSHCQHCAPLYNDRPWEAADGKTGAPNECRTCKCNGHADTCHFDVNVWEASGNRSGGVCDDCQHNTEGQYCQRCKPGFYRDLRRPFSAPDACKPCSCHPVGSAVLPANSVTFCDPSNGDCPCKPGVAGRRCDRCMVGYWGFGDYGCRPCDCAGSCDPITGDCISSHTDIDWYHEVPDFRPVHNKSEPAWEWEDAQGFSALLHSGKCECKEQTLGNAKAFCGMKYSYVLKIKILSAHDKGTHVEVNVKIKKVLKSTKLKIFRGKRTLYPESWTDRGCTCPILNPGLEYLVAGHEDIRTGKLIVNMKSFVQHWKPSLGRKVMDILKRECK
Put plainly: AVEXIS, prey on bait NTN4; white = No binding.
Source text: as §1

Data set [11] deals with T6, human Netrin1, recombinant AVEXIS protein (biotinylated when immobilised) (human, UniProt O95631 25-604).
T6 construct: also called NTN1
Put plainly: AVEXIS, prey on bait NTN1; white = No binding.
Source text: as §1

Data set [12] concerns the molecule itself. Kind of data set: AVEXIS, prey NTN3 on bait NTN3.
Source text: as §1

Data set [13] concerns the target T7, human Netrin-G1, AVEXIS protein (human, UniProt Q9Y2I2 29-510).
T7 construct: not shown: AVEXIS tag (bait or prey)
T7 sequence (looked up): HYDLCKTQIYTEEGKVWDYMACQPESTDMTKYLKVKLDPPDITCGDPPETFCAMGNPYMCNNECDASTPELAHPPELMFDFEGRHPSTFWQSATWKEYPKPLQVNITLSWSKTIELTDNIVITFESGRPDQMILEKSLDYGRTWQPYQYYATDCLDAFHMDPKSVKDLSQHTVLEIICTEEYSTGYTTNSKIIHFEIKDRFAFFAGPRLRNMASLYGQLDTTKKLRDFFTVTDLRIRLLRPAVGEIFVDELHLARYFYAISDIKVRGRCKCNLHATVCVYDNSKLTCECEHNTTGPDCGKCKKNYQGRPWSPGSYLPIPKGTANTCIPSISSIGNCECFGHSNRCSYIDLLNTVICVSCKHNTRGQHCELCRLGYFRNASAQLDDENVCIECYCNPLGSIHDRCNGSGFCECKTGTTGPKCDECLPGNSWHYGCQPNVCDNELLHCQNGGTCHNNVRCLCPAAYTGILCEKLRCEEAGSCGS
Put plainly: AVEXIS, prey on bait NTNG1; white = No binding.
Source text: as §1

Data set [14] concerns the molecule itself. Kind of data set: AVEXIS, prey on bait NTN3; white = No binding.
Source text: as §1

Data set [15] concerns the target T6, human Netrin1, recombinant AVEXIS …. Put plainly: AVEXIS, prey NTN1 on bait NTN3.
Source text: as §1

For data set [16], the target named is T5, human Netrin-4, AVEXIS protein. Put plainly: AVEXIS, prey NTN3 on bait NTN4.
Source text: as §1

In data set [17] the target is T8, zebrafish Netrin1a, AVEXIS bait or prey protein (zebrafish).
T8 construct: Prey and bait forms are kept as one molecule; also called Ntn1a; Netrin1a bait
Put plainly: AVEXIS competition: Netrin1a bait, monomeric DCC prey, Draxin added together with the prey.
Source text: (§2) The procedure of the competition assay is based on the AVEXIS assay.
In order to do so we carried out an AVEXIS based competition assay and tested three different settings (FIG. 9A).

Data set [18] deals with T8, zebrafish Netrin1a, AVEXIS bait or prey …. Put plainly: AVEXIS competition: Netrin1a bait preincubated with monomeric DCC prey, Draxin added 30 min after the prey.
For data set [19] the target is unchanged. Put plainly: AVEXIS competition: Netrin1a bait, DCC prey, purified Draxin as inhibitor.
Source text: as §2
The target is the same in data set [20]. Put plainly: AVEXIS competition: Netrin1a bait, Unc5b prey, purified Draxin as inhibitor.
Source text: as §2
Data set [21] shares this target. Kind of data set: AVEXIS competition: Netrin1a bait, monomeric DCC prey, Draxin added 30 min before the prey.

B1: zebrafish DraxinB, AVEXIS protein (ligand)
chain: TNTHHNSPMEVFSENIIIPPKPEASIHHHTHQRTDRGRKERMTASQLRERPRIAIFHTQNEGPDLEGLSPVRLEMEPADKRRVMTPRKKTFMGSDSLIQEKMNISPGAETPEKAMRRPTVRKVFGGHITRAPHEEESLASGKKRRVSFDQRLNKASFGSPTEPVLPAATVGTFILPITAAVDGNPNPSSEPQVRRYLGGDVAPTFNMALFDWTDYEDMRPGDKKQYSKKQGSEKQATQSPSTGLVRLTSENNVCKHHLDCLPGSCCNLRKHVCELHNRGFNNKCYDSCMCEEGLRCYAKSHRHYRITRKKGQCVDPEDLNHAVSRWMQM
B1: the binding result in [1], in data set [3] and in data set [7] was “no binding” throughout. The A486nm in data set [2] is 0.061; in data set [4], 0.059; in [5], 0.057; in data set [6], 0.056.

B2: human Netrin-3, AVEXIS protein (ligand)
chain: not shown
notes: not shown: AVEXIS tag (bait or prey)
As to B2, the A486nm in [8] amounted to 0.06; in data set [9], 0.224; in data set [10], 0.064; in [11], 0.068; in [13], 0.069; in data set [14], 0.068. The binding result in data set [12], in data set [15] and in data set [16] was “no binding” in each case.

B3: purified His-tagged full-length zebrafish Draxin protein (Draxin-CD4d3+4-6XHis) (ligand)
chain: T1 chain
notes: Expressed in HEK293-6E cells and purified on HisTrap HP; also called purified full length DraxinA; purified DraxinA; not shown: rat Cd4d3+4 tag and 6xHis
Regarding B3, the “IC50 (read off the curve)” value is around 10 nM in [17]; around 20 nM in [18]; around 70 nM in data set [19]; around 10 nM in data set [20]; around 7 nM in data set [21].

The record behind these values is patent US20160347802A1 (MAX PLANCK GESELLSCHAFT ZUR FOERDERUNG DER WISSENSCHAFTEN E …, published 2016).
